These results are taken from US20220010003A1 (Boehringer Ingelheim, published 2022).

The target of experiment [1] is T1, recombinant human periostin (human, UniProt Q15063 22-836).
T1 sequence: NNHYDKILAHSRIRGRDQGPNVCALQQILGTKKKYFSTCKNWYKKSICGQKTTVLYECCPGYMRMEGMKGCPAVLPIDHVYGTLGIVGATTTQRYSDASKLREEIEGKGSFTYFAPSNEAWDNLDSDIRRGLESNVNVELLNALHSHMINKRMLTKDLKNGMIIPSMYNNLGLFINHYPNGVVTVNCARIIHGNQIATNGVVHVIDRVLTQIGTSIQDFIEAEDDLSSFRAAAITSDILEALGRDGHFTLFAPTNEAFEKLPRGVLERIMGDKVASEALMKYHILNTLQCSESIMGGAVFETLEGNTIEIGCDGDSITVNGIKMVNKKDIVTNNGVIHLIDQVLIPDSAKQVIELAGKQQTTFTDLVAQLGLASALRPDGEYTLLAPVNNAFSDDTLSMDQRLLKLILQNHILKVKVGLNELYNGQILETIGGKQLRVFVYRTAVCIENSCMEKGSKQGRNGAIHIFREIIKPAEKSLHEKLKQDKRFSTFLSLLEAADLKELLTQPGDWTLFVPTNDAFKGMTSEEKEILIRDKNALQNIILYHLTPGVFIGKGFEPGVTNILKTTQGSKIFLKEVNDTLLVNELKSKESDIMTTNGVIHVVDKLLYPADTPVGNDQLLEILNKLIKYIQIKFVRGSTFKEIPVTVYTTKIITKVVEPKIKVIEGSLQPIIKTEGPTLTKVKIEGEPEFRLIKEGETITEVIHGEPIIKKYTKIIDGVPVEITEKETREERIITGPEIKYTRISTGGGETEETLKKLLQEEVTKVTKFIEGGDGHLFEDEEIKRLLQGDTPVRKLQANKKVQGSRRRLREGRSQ
As to the kind of experiment: cell-based or functional assay.

For experiment [2], the target named is T2, recombinant mouse periostin (mouse, UniProt Q62009-2 24-811, limits assumed).
T2 sequence (looked up): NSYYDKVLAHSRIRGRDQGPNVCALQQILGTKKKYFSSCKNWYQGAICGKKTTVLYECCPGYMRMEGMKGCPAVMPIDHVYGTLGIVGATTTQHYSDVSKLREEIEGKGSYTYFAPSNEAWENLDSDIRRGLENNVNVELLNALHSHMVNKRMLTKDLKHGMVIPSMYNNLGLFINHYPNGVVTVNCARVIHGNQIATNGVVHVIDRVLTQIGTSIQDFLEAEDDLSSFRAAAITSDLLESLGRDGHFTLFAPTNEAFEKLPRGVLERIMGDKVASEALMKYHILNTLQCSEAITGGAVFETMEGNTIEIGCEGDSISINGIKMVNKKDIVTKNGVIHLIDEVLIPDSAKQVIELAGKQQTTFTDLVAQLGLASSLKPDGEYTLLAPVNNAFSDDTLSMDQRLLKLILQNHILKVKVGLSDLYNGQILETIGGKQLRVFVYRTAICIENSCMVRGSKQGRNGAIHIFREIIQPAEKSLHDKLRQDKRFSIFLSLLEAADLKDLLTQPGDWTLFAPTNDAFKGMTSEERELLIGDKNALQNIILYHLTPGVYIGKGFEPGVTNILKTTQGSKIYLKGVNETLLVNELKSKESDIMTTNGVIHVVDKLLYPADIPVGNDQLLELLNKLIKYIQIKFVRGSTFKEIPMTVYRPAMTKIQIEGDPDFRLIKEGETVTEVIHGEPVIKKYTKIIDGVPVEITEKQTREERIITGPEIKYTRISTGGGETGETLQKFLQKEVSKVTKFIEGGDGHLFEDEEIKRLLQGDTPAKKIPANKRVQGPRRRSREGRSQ
The experiment is described as follows: cell-based or functional assay.

In experiment [3] the target is T3, recombinant rat periostin (rat, UniProt A0A8I6AHK0 24-838).
T3 construct: also called RatPOSTN
The experiment is described as follows: BLI (Octet Red); Table 6 ties the high end of the range to rat periostin. How it is done: (§1) NB0828's binding affinity was determined across human, mouse, rat, and cyno species. NB0828 affinities were determined using the octet red system. Briefly, anti-human Fc (AHC) biosensors were used to capture NB0828, followed by association of titrating amounts of either recombinant human, mouse, rat, or cyno periostin (100 nM→0 nM; 1:2 dilutions). Recombinant human, mouse, and rat periostin was purchased commercially from R&D systems, whereas cyno periostin was made internally.
(In general: Biolayer interferometry detects binding as a change in optical thickness at a sensor tip.)

For experiment [4], the target named is T1, recombinant human periostin. The experiment is described as follows: BLI (Octet Red), NB0828 captured on anti-human Fc (AHC) biosensors, periostin titrated from 100 nM. On the procedure: as §1
Experiment [5] addresses T4, recombinant cyno periostin (cyno, UniProt F6ZVK0 47-861 (rhesus entry)).
T4 construct: also called CynoPOSTN
T4 sequence: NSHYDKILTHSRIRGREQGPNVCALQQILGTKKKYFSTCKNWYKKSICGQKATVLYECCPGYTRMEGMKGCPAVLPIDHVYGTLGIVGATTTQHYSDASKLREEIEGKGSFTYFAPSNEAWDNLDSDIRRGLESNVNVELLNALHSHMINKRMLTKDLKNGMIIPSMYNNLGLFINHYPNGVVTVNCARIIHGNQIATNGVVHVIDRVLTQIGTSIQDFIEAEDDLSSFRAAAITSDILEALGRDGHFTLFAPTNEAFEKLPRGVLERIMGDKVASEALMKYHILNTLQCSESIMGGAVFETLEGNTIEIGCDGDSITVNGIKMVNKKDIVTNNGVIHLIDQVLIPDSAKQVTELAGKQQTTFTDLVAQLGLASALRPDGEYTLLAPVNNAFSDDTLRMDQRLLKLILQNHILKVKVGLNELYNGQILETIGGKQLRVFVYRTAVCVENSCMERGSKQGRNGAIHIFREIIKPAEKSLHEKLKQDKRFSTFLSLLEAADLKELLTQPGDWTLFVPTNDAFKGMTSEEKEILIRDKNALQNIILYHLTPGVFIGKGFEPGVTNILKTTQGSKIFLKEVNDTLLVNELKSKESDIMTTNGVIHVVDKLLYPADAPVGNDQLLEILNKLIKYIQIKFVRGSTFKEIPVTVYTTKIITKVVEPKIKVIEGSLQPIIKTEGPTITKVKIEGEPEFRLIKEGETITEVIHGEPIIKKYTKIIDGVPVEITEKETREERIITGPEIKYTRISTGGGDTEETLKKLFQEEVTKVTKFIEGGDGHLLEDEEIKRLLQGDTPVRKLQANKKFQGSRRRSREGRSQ
The experiment is described as above. How it is done:
as §1

One may read the Kd as a measure of binding affinity in units of concentration. A word on the koff: it is a measure of how fast the partners let go of each other. By kon is commonly meant the rate constant with which the complex forms.

B1: NB0828 (antibody, V domains shown)
VH: QVQLVQSGAEVKKPGASVKVSCKASGYTFTSYGISWVRQAPGQGLEWMGWISAYNGNTNYAQKLQGRVTMTTDTSTSTAYMELRSLRSDDTAVYYCARDMLVVPFDYWGQGTLVTVSS
VL: QSVLTQSSSASGTPGQTVTVSCSGSSSDIGSNRVNWYQQLPGTAPKLLIYSNDQRPSGVPDRFSGSKSGTSASLAISGLQSADEADYYCAAWDDSLSTYVFGSGTKVTVL
Take B1: the “CAA IC50” value in experiment [1] stood at 24300 pM; in experiment [2], 26000 pM. The Kd is 500 pM in experiment [3], 351 pM in experiment [4] and 265 pM in experiment [5]. Moreover, the koff in experiment [4] is 0.000246 s⁻¹; in experiment [5], 0.000211 s⁻¹. Moreover, the kon in experiment [4] worked out at 702000 M⁻¹ s⁻¹; in experiment [5], 794000 M⁻¹ s⁻¹.
